Experimental findings from patent US20020098537 are described below.

Data set [1] concerns the target T1, novel protein having inhibitory activity on the protease activity of HGF activator (HAI-I), purified from MKN45 cell culture supernatant.
T1 sequence (O43278 36-529, looked up): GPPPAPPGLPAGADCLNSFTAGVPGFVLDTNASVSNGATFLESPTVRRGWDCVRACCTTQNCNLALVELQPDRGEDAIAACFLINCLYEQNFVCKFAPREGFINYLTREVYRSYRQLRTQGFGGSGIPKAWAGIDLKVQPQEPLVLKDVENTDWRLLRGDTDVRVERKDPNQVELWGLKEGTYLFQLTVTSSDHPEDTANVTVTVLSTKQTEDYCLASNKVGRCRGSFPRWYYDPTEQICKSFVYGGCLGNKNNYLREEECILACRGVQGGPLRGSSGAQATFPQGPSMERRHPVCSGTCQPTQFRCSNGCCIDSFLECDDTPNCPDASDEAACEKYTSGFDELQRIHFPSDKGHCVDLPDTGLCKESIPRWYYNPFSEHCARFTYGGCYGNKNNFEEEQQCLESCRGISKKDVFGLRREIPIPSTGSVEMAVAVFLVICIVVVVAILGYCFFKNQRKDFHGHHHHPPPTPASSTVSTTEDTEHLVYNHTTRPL

Data set [2] has as its target single chain HGF (hepatocyte growth factor), P14210.

single chain HGF (hepatocyte growth factor), P14210, sequence (P14210 32-728): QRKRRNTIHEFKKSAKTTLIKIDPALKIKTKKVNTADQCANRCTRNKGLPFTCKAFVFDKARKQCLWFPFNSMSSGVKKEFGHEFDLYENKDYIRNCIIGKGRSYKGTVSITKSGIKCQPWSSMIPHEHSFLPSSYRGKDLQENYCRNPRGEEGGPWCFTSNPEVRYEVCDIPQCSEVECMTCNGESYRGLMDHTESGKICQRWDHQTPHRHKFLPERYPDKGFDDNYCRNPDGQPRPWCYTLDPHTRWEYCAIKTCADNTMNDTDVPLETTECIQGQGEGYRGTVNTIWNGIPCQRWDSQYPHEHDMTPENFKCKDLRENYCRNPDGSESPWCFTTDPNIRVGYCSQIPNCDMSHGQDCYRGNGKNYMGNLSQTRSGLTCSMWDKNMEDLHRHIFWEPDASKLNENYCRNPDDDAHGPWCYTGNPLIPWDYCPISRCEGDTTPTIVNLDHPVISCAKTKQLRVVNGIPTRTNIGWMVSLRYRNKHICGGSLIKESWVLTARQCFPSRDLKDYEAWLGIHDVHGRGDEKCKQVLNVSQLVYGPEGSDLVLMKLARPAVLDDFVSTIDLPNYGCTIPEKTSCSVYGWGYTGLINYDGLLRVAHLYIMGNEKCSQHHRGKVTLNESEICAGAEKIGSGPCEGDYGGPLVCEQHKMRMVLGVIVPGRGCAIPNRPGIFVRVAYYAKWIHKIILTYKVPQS

B1: serum-derived hepatocyte growth factor activator (HGF activator) (protein)
chain: VQLSPDLLATLPEPASPGRQACGRRHKKRTFLRPRIIGGSSSLPGSHPWLAAIYIGDSFCAGSLVHTCWVVSAAHCFSHSPPRDSVSVVLGQHFFNRTTDVTQTFGIEKYIPYTLYSVFNPSDHDLVLIRLKKKGDRCATRSQFVQPICLPEPGSTFPAGHKCQIAGWGHLDENVSGYSSSLREALVPLVADHKCSSPEVYGADISPNMLCAGYFDCKSDACQGDSGGPLACEKNGVAYLYGIISWGDGCGRLHKPGVYTRVANYVDWINDRIRPPRRLVAPS
Consider B1, for which the “conversion of single chain HGF to double chain HGF by HGF activator (SDS-PAGE under reducing conditions, CBB staining); 10 ng protein, 5 ng HGF activator, 10 ug single chain HGF” value in data set [1] was “Addition of the protein resulted in suppression of the activity of HGF activator converting single chain HGF to double chain HGF”. Further, the “conversion of single chain HGF to double chain HGF (SDS-PAGE under reducing conditions, CBB staining)” value in data set [2] was “the activity of HGF activator converting single chain HGF to double chain HGF”.
